{"source": "patent CN114316047A", "about": "(DONGDA BIOTECHNOLOGY SUZHOU CO LTD, dated 2022)", "binders": {"B1": {"name": "hu8D4-hIgG4 (antibody, part only; not given: Light chain variable domain, constant regions, V domains shown, part only)", "VH": "QVQLVQSGAEVKKPGASVKVSCKASGYTFTNFWMHWVRQAPGQRLEWIGAIFPGNTDTTYNRKFKDRATLTADTSASTAYMELSSLRSEDTAVYYCTRNHYGLDYWGQGTLVTVSS"}, "B2": {"name": "hu9H8-hIgG4 (antibody, V domains shown)", "VH": "EVQLLESGGGLVQPGGSLRLSCAASGFTFSDYYMYWVRQAPGKGLEWVSQISNGGGNTYYPDTVKGRFTISRDNSKNTLYLQMNSLRAEDTAVYYCSKSYYKYDGWYFDVWGQGTLVTVSS", "VL": "DIVMTQSPDSLAVSLGERATINCRASESVEYSRTSLIQWYQQKPGQPPKLLIYAASYVESGVPDRFSGSGSGTDFTLTISSLQAEDVAVYYCQQARKVPWTFGQGTKLEIK", "notes": "Humanised antibody built as IgG4 subtype, expressed in 293 cells; also called 9H8人源化抗体; 人源化抗体9H8"}, "B3": {"name": "5F7 (antibody, V domains shown)", "VH": "EVMLVESGGDLVKPGGSLKLSCAASGFTFSSYMMSWVRQTPEKRLEWVAAISGGGGDTYYPDSVKGRFTISRDNAKNTLYLQMSSLRSEDTALYYCARRVVYAMDCWGQGTSVTVSS", "VL": "DIQMTQSPASQSASLGESVTITCLASQSIGTWLVWYQQKPGKSPQLLISAATSLADGVPSRFSGSGSGTKFSFKISSLQAEDFVSYYCQQLYIIPWTFGGGTKLEIK", "notes": "Mouse monoclonal antibody purified from hybridoma supernatant by Protein A; also called 鼠源PD-1单克隆抗体5F7; PD-1杂交瘤抗体5F7"}, "B4": {"name": "4B5 (antibody, V domains shown)", "VH": "EVILVESGGDLVKPGGSLKLSCAASGFTFSSYMMSWVRQTPEKRLEWVATISGGGANTYYLDSMKGRFTISRDNAKNILYLQMSSLRSEDTAFYYCARQSDRGFPYWGQGTLVTVSA", "VL": "DIQMTQSPASQSASLGESVTITCLASQPIGTWLAWYQQKPGTSPQLLIFAATTLTDGVPSRFSGSGSGTKFSFKISSLQAEDFVSYYCQQFSSIPYTFGGGTRLEIK", "notes": "Mouse monoclonal antibody purified from hybridoma supernatant by Protein A; also called 鼠源PD-1单克隆抗体4B5; PD-1杂交瘤抗体4B5"}, "B5": {"name": "9H8 (antibody, V domains shown)", "VH": "EVKLVESGGGLVQPGGSLKLSCATSGFTFSDYYMYWVRQTPEKRLEWVAQISNGGGNTYYPDTVKGRFTISRDNAKNTLYLQMSRLKSEDTAIYYCSKSYYKYDGWYFDVWGAGTTVTVSS", "VL": "DIVLTQSPASLAVSLGQRATISCRASESVEYSRTSLIQWYQLKPGQPPKLLIYAASYVESGVPDRFSGSGSGTEFSFNIHPVEEDDIAMYFCQQARKVPWTFGGGTNLEIK", "notes": "Mouse monoclonal antibody purified from hybridoma supernatant by Protein A; also called 鼠源PD-1单克隆抗体9H8; PD-1杂交瘤抗体9H8"}, "B6": {"name": "5H10 (antibody, V domains shown)", "VH": "EVQLVESGGGLVKPGGSLKLSCAASGFTFSDYGMHWVRQAPEKGLEWVAYISGDSNTIYYADTVKGRFTISRDNAKNTLFLQMTSLRSEDTAMYYCTKRGPYYGYTHYFDYWGQGTTLTVSS", "VL": "SIVMTQTPKFLLVSAGDRVTMTCKASQSVSNDVVWYQQKPGQSPKLLIYYASKRYTGVPDRFTGNGYGTDFTFTISTVQAEDLAVYFCQQDYSSPWTFGGGTKLEIK", "notes": "Mouse monoclonal antibody purified from hybridoma supernatant by Protein A; also called 鼠源PD-1单克隆抗体5H10; PD-1杂交瘤抗体5H10"}, "B7": {"name": "8D4 (antibody, V domains shown)", "VH": "EVQLQQSGTVLARPGASVKMSCKTSGYTFTNFWMHWVKQRPGQGLDWIGAIFPGNTDTTYNRKFKDKAKLTAVTSASTAYMELSSLTNEDSAVYYCTRNHYGLDYWGQGTSVTVSS", "VL": "DIVLTQSPASLAVSLGQRATISCRASESVSIHGTHLMHWYQQKPGQPPKLLIYIASNLGSGVPARFSGSGSETDFTLNIHPVEEEDAATYFCQQSIEDPWTFGGGTKLEIK", "notes": "Mouse monoclonal antibody purified from hybridoma supernatant by Protein A; also called 鼠源PD-1单克隆抗体8D4; PD-1杂交瘤抗体8D4"}, "B8": {"name": "10A10 (antibody, V domains shown)", "VH": "EVKLVESGGDLVKPGGSLKLSCAASGFTFNYYDISWVRQTPEKRLEWVATISGGGRYTYYLDNVQGRFTISRDNAKNILYLQMNSLRSDDTALYFCASPYEGAMDYWGQGTSVTVSS", "VL": "DIVMTQSHKFMSTSIGDGVNITCKASQDVGTAVAWYQQKPGQSPKLLNKWASTRHTGVPDRFTGSGSGTDFTLTINNVQSEDLADYFCQQYSTFPYTFGGGTNLELK", "notes": "Mouse monoclonal antibody purified from hybridoma supernatant by Protein A; also called 鼠源PD-1单克隆抗体10A10; PD-1杂交瘤抗体10A10"}}, "data": [{"molecular_target": "T1, PD-1 on 293T-PD-1 cells (UniProt Q15116 25-288, limits assumed)", "T1 construct": "whole, on cells; the antibodies are anti-human PD-1", "T1 sequence (Q15116 25-288 limits assumed)": "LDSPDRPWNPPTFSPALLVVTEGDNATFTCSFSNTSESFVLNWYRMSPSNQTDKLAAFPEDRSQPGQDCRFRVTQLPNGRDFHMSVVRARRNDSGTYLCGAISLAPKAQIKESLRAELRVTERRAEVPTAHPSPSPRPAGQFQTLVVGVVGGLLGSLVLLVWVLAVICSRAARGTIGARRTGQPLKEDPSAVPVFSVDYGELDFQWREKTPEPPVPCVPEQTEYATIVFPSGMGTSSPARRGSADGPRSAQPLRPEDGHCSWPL", "test": "FACS on 293T-PD-1 cells", "units": {"EC50": "µg/mL"}, "values": [{"binder": "B1", "EC50": 0.311}, {"binder": "B2", "EC50": 0.285}]}, {"molecular_target": "T1, PD-1 on 293T-PD-1 cells", "test": "FACS on 293T-PD-1 cells, PE goat anti-mouse detection", "units": {"EC50": "µg/mL"}, "values": [{"binder": "B3", "EC50": 0.0176}, {"binder": "B4", "EC50": 0.04}, {"binder": "B5", "EC50": 0.0203}, {"binder": "B6", "EC50": 0.0643}, {"binder": "B7", "EC50": 0.0443}, {"binder": "B8", "EC50": 0.0314}]}, {"molecular_target": "T2, 人的PD-1胞外区与人Fc融合蛋白(PD-1-ECD-hFc) (human, UniProt Q15116 25-170)", "T2 construct": "extracellular domain; Coated on ELISA plates; also called PD-1-hFc; not shown: human Fc", "T2 sequence (Q15116 25-170)": "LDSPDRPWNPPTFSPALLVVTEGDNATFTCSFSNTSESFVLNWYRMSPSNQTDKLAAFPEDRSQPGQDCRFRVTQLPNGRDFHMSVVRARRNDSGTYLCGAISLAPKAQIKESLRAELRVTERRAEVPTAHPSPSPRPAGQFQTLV", "test": "ELISA, PD-1-ECD-hFc coated, goat anti-mouse IgG detection", "units": {"EC50": "µg/mL"}, "values": [{"binder": "B3", "EC50": 0.00123}, {"binder": "B4", "EC50": 0.00175}, {"binder": "B5", "EC50": 0.000511}, {"binder": "B6", "EC50": 0.00109}, {"binder": "B7", "EC50": 0.00261}, {"binder": "B8", "EC50": 0.00114}]}, {"molecular_target": "T3, 人的PD-1胞外区与小鼠Fc融合蛋白(PD-1-ECD-mFc) (human, UniProt Q15116 25-170)", "T3 construct": "extracellular domain; also called PD-1-mFc; not shown: mouse Fc", "T3 sequence (Q15116 25-170)": "as above", "test": "ELISA on coated PD-1-mFc (antigen per legend of figure 6)", "units": {"EC50": "µg/mL"}, "values": [{"binder": "B1", "EC50": 0.0489}, {"binder": "B2", "EC50": 0.00532}]}, {"molecular_target": "T2, 人的PD-1胞外区与人Fc融合蛋白(PD-1-ECD-hFc)", "test": "competition ELISA, PD-1-ECD-hFc coated, competitor PD-L1-Biotin", "units": {"IC50": "µg/mL"}, "values": [{"binder": "B3", "IC50": 0.324}, {"binder": "B4", "IC50": 0.343}, {"binder": "B5", "IC50": 0.319}, {"binder": "B6", "IC50": 0.339}, {"binder": "B7", "IC50": 0.37}, {"binder": "B8", "IC50": 0.361}]}, {"molecular_target": "T1, PD-1 on 293T-PD-1 cells", "test": "competition FACS on 293T-PD-1 cells, competitor PD-L1-biotin (row head prints EC50, title IC50)", "units": {"IC50": "µg/mL"}, "values": [{"binder": "B3", "IC50": 0.0181}, {"binder": "B4", "IC50": 0.0355}, {"binder": "B5", "IC50": 0.00854}, {"binder": "B6", "IC50": 0.0412}, {"binder": "B7", "IC50": 0.0296}, {"binder": "B8", "IC50": 0.0276}]}, {"molecular_target": "T2, 人的PD-1胞外区与人Fc融合蛋白(PD-1-ECD-hFc)", "test": "competition ELISA, coated PD-1-hFc (per table title; figure 7 legend says PD-1-mFc), competitor PD-L1-Biotin", "units": {"IC50": "µg/mL"}, "values": [{"binder": "B1", "IC50": 0.851}, {"binder": "B2", "IC50": 0.332}]}]}
